# Molecular target: CaV1.2 C-terminal domain, residues 1520-1669 (two channel EF-hand motifs, pre-IQ and IQ-motif) (rabbit) (UniProt P15381)
# Experiment: SEC
# UniProt P15381, sequence (P15381 1520-1669): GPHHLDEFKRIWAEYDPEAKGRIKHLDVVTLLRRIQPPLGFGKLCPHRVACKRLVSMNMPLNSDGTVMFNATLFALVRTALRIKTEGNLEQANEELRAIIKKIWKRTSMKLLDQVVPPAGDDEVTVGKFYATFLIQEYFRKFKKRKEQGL
substance,measurement,value
Calmodulin (from UniProt P0DP23 1-149) (natural protein),stoichiometry N (CaM per CT(1520-1669) (4:4)),1

# Source: paper PMC9719739
